Laboratory results as given in the supplement of paper PMC10567573.

B1: DVL3 (parent)
chain: FCADNPSELPPPMERTGGIGDSRP

Variants of: B1
Assay: protein stability index of a GFP-peptide fusion (GPS, HEK-293T) (PSI 1-6); higher = more stable
Conditions: c terminus: a fixed tail appended
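Note: lentivirally expressed fusions sorted by FACS into six bins by GFP to DsRed ratio, PSI derived from sequencing read proportions per bin multiplied by bin number.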

Variant	protein stability index
RCADNPSELPPPMERTGGIGDSRP [F1R]	4.68
NCADNPSELPPPMERTGGIGDSRP [F1N]	5.58
WCADNPSELPPPMERTGGIGDSRP [F1W]	4.26
VCADNPSELPPPMERTGGIGDSRP [F1V]	5.18
ACADNPSELPPPMERTGGIGDSRP [F1A]	5.49
LCADNPSELPPPMERTGGIGDSRP [F1L]	4.63
GCADNPSELPPPMERTGGIGDSRP [F1G]	5.33
HCADNPSELPPPMERTGGIGDSRP [F1H]	5.25
PCADNPSELPPPMERTGGIGDSRP [F1P]	5.44
FHADNPSELPPPMERTGGIGDSRP [C2H]	4.36
FIADNPSELPPPMERTGGIGDSRP [C2I]	4.71
FTADNPSELPPPMERTGGIGDSRP [C2T]	5.06
FNADNPSELPPPMERTGGIGDSRP [C2N]	4.43
FDADNPSELPPPMERTGGIGDSRP [C2D]	5.46
FLADNPSELPPPMERTGGIGDSRP [C2L]	5
FVADNPSELPPPMERTGGIGDSRP [C2V]	3.27
FMADNPSELPPPMERTGGIGDSRP [C2M]	4.71
FWADNPSELPPPMERTGGIGDSRP [C2W]	3.44
FCADNPSELPPPMERTGGIGDFRP [S22F]	3.28
FCADNPSELPPPMERTGGIGDLRP [S22L]	4.4
FCADNPSELPPPMERTGGIGDCRP [S22C]	3.55
FCADNPSELPPPMERTGGIGDQRP [S22Q]	5.11
FCADNPSELPPPMERTGGIGDRRP [S22R]	4.29
FCADNPSELPPPMERTGGIGDERP [S22E]	5.23

Variant	protein stability index
FCADNPSELPPPMERTGGIGSSRP [D21S]	4.35
FCADNPSELPPPMERTGGIGQSRP [D21Q]	4.58
FCADNPSELPPPMERTGGIGISRP [D21I]	3.77
FCADNPSELPPPMERTGGIGLSRP [D21L]	3.48
FCADNPSELPPPMERTGGIGYSRP [D21Y]	3.92
FCADNPSELPPPMERTGGIGGSRP [D21G]	4.36
FCADNPSELPPPMERTGGIGRSRP [D21R]	3.71
FCADNPSELPPPMERTGGIGMSRP [D21M]	3.67
FCADNPSELPPPMERTGGIGDSTP [R23T]	5.04
FCADNPSELPPPMERTGGIGDSSP [R23S]	4.75
FCADNPSELPPPMERTGGIGDSVP [R23V]	4.46
FCADNPSELPPPMERTGGIGDSWP [R23W]	2.21
FCADNPSELPPPMERTGGIGDSIP [R23I]	4.18
FCADNPSELPPPMERTGGIGDSHP [R23H]	5.02
FCADNPSELPPPMERTDGIGDSRP [G17D]	4.61
FCADNPSELPPPMERTHGIGDSRP [G17H]	4.69
FCADNPSELPPPMERTNGIGDSRP [G17N]	4.74
FCADNPSELPPPMERTMGIGDSRP [G17M]	4.48
FCADNPSELPPPMERTPGIGDSRP [G17P]	4.85
FCAGNPSELPPPMERTGGIGDSRP [D4G]	4.37
FCAVNPSELPPPMERTGGIGDSRP [D4V]	3.79
FCAFNPSELPPPMERTGGIGDSRP [D4F]	3.08
FCAINPSELPPPMERTGGIGDSRP [D4I]	3.71
FCAQNPSELPPPMERTGGIGDSRP [D4Q]	3.36

Variant	protein stability index
FCAHNPSELPPPMERTGGIGDSRP [D4H]	4.27
FCASNPSELPPPMERTGGIGDSRP [D4S]	4.25
FCAYNPSELPPPMERTGGIGDSRP [D4Y]	3.98
FCADNPSELPPPHERTGGIGDSRP [M13H]	4.77
FCADNPSELPPPEERTGGIGDSRP [M13E]	5.18
FCADNPSELPPPWERTGGIGDSRP [M13W]	2.97
FCADNPSELPPPCERTGGIGDSRP [M13C]	4.22
FCADNPSELPPPLERTGGIGDSRP [M13L]	4.98
FCADNPSELPPPSERTGGIGDSRP [M13S]	4.25
FCADNPSELPPPAERTGGIGDSRP [M13A]	5.31
FCADNPSELPPPYERTGGIGDSRP [M13Y]	4.07
FCADNPSELPPPDERTGGIGDSRP [M13D]	4.98
FCADNQSELPPPMERTGGIGDSRP [P6Q]	4.95
FCADNRSELPPPMERTGGIGDSRP [P6R]	4.19
FCADNISELPPPMERTGGIGDSRP [P6I]	3.73
FCADNYSELPPPMERTGGIGDSRP [P6Y]	4.27
FCADNWSELPPPMERTGGIGDSRP [P6W]	2.33
FCADNMSELPPPMERTGGIGDSRP [P6M]	3.8
FCADNHSELPPPMERTGGIGDSRP [P6H]	4.08
FCADNESELPPPMERTGGIGDSRP [P6E]	4.64
FCADNVSELPPPMERTGGIGDSRP [P6V]	4.27
FCADNNSELPPPMERTGGIGDSRP [P6N]	4.61
FCADNPSELYPPMERTGGIGDSRP [P10Y]	3.74
FCADNPSELRPPMERTGGIGDSRP [P10R]	4.08

Variant	protein stability index
FCADNPSELVPPMERTGGIGDSRP [P10V]	4.49
FCADNPSELAPPMERTGGIGDSRP [P10A]	4.29
FCADNPSELNPPMERTGGIGDSRP [P10N]	4.54
FCADNPSELGPPMERTGGIGDSRP [P10G]	4.13
FCADNPSELSPPMERTGGIGDSRP [P10S]	4.38
FCADNPSELWPPMERTGGIGDSRP [P10W]	3.13
FCADNPSELFPPMERTGGIGDSRP [P10F]	3.41
FCADNPSELPYPMERTGGIGDSRP [P11Y]	4.23
FCADNPSELPWPMERTGGIGDSRP [P11W]	3.64
FCADNPSELPGPMERTGGIGDSRP [P11G]	4.16
FCADNPSELPLPMERTGGIGDSRP [P11L]	4.64
FCADNPSELPQPMERTGGIGDSRP [P11Q]	4.54
FCADNPSELPFPMERTGGIGDSRP [P11F]	3.83
FCADNPSELPSPMERTGGIGDSRP [P11S]	4.58
FCADNPSELPRPMERTGGIGDSRP [P11R]	3.91
FCADNPSELPPPMECTGGIGDSRP [R15C]	4.69
FCADNPSELPPPMEFTGGIGDSRP [R15F]	4.1
FCADNPSELPPPMEKTGGIGDSRP [R15K]	4.45
FCADNPSELPPPMEITGGIGDSRP [R15I]	4.56
FCADNPSELPPPMEYTGGIGDSRP [R15Y]	4.39
FCADNPSELPPPMETTGGIGDSRP [R15T]	4.55
FCADNPSELPPPMEPTGGIGDSRP [R15P]	4.99
